For test [1], the target named is recombinant human TGF-β1 produced in-house (human).
The target in test [2] is recombinant mouse TGF-β1 (mouse).
Sequence of recombinant mouse TGF-β1 (mouse) (P04202 279-390): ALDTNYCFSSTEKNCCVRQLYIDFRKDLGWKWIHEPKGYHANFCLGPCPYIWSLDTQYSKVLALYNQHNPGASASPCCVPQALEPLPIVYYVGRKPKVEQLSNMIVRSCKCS

Sequence of recombinant human TGF-β1 produced in-house (human) (P01137 279-390): as the sequence (P04202 279-390) above, with S75A counted along it

B1: strep-tag-fortilin (recombinant human fortilin with an N-terminal Strep-tag II) (natural protein)
chain: MIIYRDLISHDEMFSDIYKIREIADGLCLEVEGKMVSRTEGNIDDSLIGGNASAEGPEGEGTESTVITGVDIVMNHHLQETSFTKEAYKKYIKDYMKSIKGKLEEQRPERVKPFMTGAAEQIKHILANFKNYQFFIGENMNPDGMVALLDYREDGVTPYMIFFKDGLEMEKC
Turning to B1, in test [1], the SBE-luciferase activity (firefly/Renilla) in HEK293 cells treated with TGF-β1 (1 nM) without vs with strep-tag-fortilin (3 nM); value given is with fortilin was determined as 5.4 A.U. Further, the SEAP reporter (SBE) activity of MFB-F11 cells stimulated with 156 pM TGF-β1 pre-incubated with 0, 19.5 or 195 nM strep-tag-fortilin; value given is at 195 nM fortilin in test [2] stood at 6.3 A.U.

Values taken from publication PMC8866402.
